The domain aggregation screens of Martell et al. (2025)

Assay: soluble fraction after stress (log2 fold change); higher = more stays soluble; pooled small domains, quantitative proteomics
Conditions: stress: 50 degC
In short: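 Quantitative proteomics served as the high-throughput read-out for pooled custom libraries of small protein domains. Each was stressed at 50°C. Aggregation propensity is expressed as the base-two log fold change in soluble protein after stress. A higher value means a larger share of the protein remains in solution.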
With “HMSNSWSYSEFMKAVESGQVESVTISGQSIKGTSRGGQAFESVLPAFDDKLMDTLLVNDVEVIGEKP” the “soluble fraction (log2)” value was -0.00195.
In the case of “HMGPGFVGGSVLSGGNRGEGDPVANAQVFITDMDDNVVAFTKTDAEGNFDMTNLAYGDYKMYVDILNK”, the “soluble fraction (log2)” value is reported as -0.0166.
For “HMIHEQSLHKIRNFIGSLPESLRTAFTLREQDGLSYEEIGKITNTPIGTVRSRIYRARESILDHINQE”, the “soluble fraction (log2)” value was -0.874.
In the case of “HMDDYRSLRGQEKAAIFLMSLSQEQAAKIFANLDDEEIKEISQAMSSLGTVGSEIIERLFVEFAEQVSS”, the “soluble fraction (log2)” value is reported as -1.06.
For “HMTNVETLVRMRLRSIRTTLGYSLDEIAERSNLSASTVSRIETGKRALSIDVLVPLAAALQVSVDDLLRAE”, the “soluble fraction (log2)” value was -2.43.
For “HMKSVLDDVAGLGPVRKKALLKAMGGFTRLRAASLDDILAVRAVPEEVAREVFAVLAQYNSVRNNDISE”, the “soluble fraction (log2)” value was -0.273.
In the case of “HMSKGKNEVIAYLKAHNDHRLTVAEILDGLKEEGISINRSTIYRNLDKLVENGDILAFKGKDSESAFYQYS”, the “soluble fraction (log2)” value is reported as 0.0754.
With “HMKTDFEIDITVKASSLRVVASPGGDELVGTVTRGDRVTQLATPKDGWILIKMTDGRLGYVPESLLLFP” the “soluble fraction (log2)” value was -0.0577.
With “HMKANIGDQVFTQLKDQIINGEWRPGDRIPSEAQLIQLFGVSRGTVRQAVQKLAGEGLIVTRHGEGSFVQG” the “soluble fraction (log2)” value was 0.096.
In the case of “HMSFISRMVVAVEDIALSTRPNSTPSGDKYVSKGTVLLMEKRENDWVEVRQPSSPLSGWAPKTSLLSV”, the “soluble fraction (log2)” value is reported as -0.546.
With “HMSAEAYLSFVKKENLRAAVVNYENNKEWLKDVPHERLLDLAVFAKVDMGEPGMSMKFNNWLLSR” the “soluble fraction (log2)” value was -0.78.
With “HMSARRHAVKHLDANQLQTRVARMLSEFGLTAKVSKDPNSNALIIDGAPEAQRIAAQLITTIDKE” the “soluble fraction (log2)” value was 0.091.
With “HMATGTVKWFNPNKGFGFIQQDDASKDVFVHSNELNGVYINEGDKVEFDVVETEKGLSAQNIKK” the “soluble fraction (log2)” value was -0.0828.
In the case of “HMDRPLRTKEHFARFAGEQVVVKTSSPIDGRSSFTGTLEGMEGDDVIVEVDGSRIAIGYSLIKRAHVVG”, the “soluble fraction (log2)” value is reported as 0.117.
With “HMSKHLWNKVLPKVTTANITNLINQAIRKGEWRMDNKGVVHIIWRYRGKIIEVTGYLKDKVFNVGNAWVR” the “soluble fraction (log2)” value was -0.122.
With “HMEWNREQLEQIVLQHIRKHGFITRATYTELTGRLKNSALADLKSFAAEGIIKRVGRGNQMHFIVPL” the “soluble fraction (log2)” value was -2.42.
For “HMYKLTTQRRAILDVIIENHDKHLNPEEIYDIVKEKYPEIGIATVYRTLQLLEKLNIIYRLNFDDGYNRYE”, the “soluble fraction (log2)” value was -2.3.
In the case of “HMNSEFPFNGGRIVDNVPANRLQIFFDEKPDADVRTRLKQNGFRWAPNSGAWQSYRHGYTLDWARREFNA”, the “soluble fraction (log2)” value is reported as 0.134.
With “HMKQETLNEIGTKIRKLRESKNLSIQEFADKLEMEYNNVIRIEKGRTNFTIGTLVKIANSLEVNLKDI” the “soluble fraction (log2)” value was -0.78.
In the case of “HMRAKPLILLDGREISAEELFSLDKNSIKSIEVLKDETALAQYGEKAKNGVVLVVTKSAAAS”, the “soluble fraction (log2)” value is reported as 0.246.
For “HMIMTGSIQEKNGKYYTVLNIKDKNGKYKKKWQTTGLPVKGNKRKAEQILRRRIAEYEANQL”, the “soluble fraction (log2)” value was -0.436.
For “HMTGSLLVEVQGRPDADRLLGQALVDAGLTARPAGGALIEVEVRDETTPDVVRDLTVDLGLGLVRMQERH”, the “soluble fraction (log2)” value was -0.702.
With “HMNSKYILLQVSDIPKTSLVLERQFGVTEYSVQDEHTLRIYDTSLDMAAVNKALVVQDIAVISSQL” the “soluble fraction (log2)” value was -0.353.
In the case of “HMQPGDRVDALIVGVSGEHVFLDVGGKSEGVMAAAELRNEAGELSAAEGDRVQVYLLSNRNGELIFTA”, the “soluble fraction (log2)” value is reported as 0.00616.
For “HMKRDEYIAQLKKYLKRLPKKEYDSAIEYFTEYFDEAGPERELEVIQELGQPKEAAKEMLLQLLNE”, the “soluble fraction (log2)” value was 0.0905.
For “HMQSREISYSEFVTAVEAGDVRNVTLDGEQVRFRRADGSDYVTIRPEDAEVTKLLMANDIPVRAEP”, the “soluble fraction (log2)” value was 0.169.
For “HMDLRIIKTKKAIKTAFLNLLKENKYHNITISAISETALINRKTFYAHYETKDELYADVIEDALRVLSP”, the “soluble fraction (log2)” value was 0.0478.
In the case of “HMGLDPVFKKWVDDNPWYTENRVLRALTHDYAEELKQTNPQLVGVEFLDQVKKRVQADHPEFFQ”, the “soluble fraction (log2)” value is reported as 0.141.
In the case of “HMGPLYARVKAIVLARIMGGDWPPGTALPAEMELARALGVSQGTVRKALDALTAEQVVVRRQGSGTYVAE”, the “soluble fraction (log2)” value is reported as -1.04.
For “HMHIELNDTQKRILNFLSDDPNLSAVRLAEQLGISSRNVEKNIKKLKEYGILIRHGSPKNGYWEIVV”, the “soluble fraction (log2)” value was 0.0335.
